The record followed here is the supplement of paper PMC6755084.

The series relates to F1*sub RNA substrate (template-directed ligation). As to the kind of experiment: fraction ligated after 30 min (ligated reads / total reads); higher = more ligase activity; sequences stand for … in GAGACCGCAACTGAAAAGTTGT…AGTTCTGCACGTAGAAGCAAAAGGC
Particulars: 42 °C. How it is done:
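Chip-synthesised pool of F1* ligase ribozyme variants (all single and double substitutions, single, double and triple deletions in the catalytic core and GAA bulge, plus designed variants) was transcribed with T7 and reacted as a pool with excess substrate F1*sub for 30 min at 42 C in 50 mM EPPS pH 8.5, 25 mM MgCl2. Ligated and unligated bands were separated by PAGE, barcoded by RT and deep sequenced; fraction ligated = ligated reads / total reads per variant, relative activity = FL / FL of wild type (0.826). Sequences are the DNA template of the ribozyme.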
On to ATCACTTGTCTAAGAACTTTGGATGGGTTGA [3d175], for which the fraction ligated came to 0.728.

In turn, ATCACTTGTCTAAGACACTTGGATGGGTTGA [3d178] returned a fraction ligated of 0.73.

Regarding ATCACTTGTCTAAGACACTTTGATGGGTTGA [3d179], the fraction ligated was determined as 0.594.

In turn, ATCACTTGTCTAAGACACTTTGGAGGGTTGA [3d181] came in with a fraction ligated of 0.155.

On to ATCACTTGTCTAAGACACTTTGGATGGGTTA [3d183], for which the fraction ligated came out at 0.656.

As for ATCACTTGTCTAAGACACTTTGGATGGGTTG [3d184], the fraction ligated worked out at 0.762.

With ATCACTTGTCTAAGACACTTTGGATGGGTTGA [2d10], the fraction ligated came out at 0.765.

In turn, ATCACTTGTCTAAGACACTTTGGATGGTTGA [3d182] registered a fraction ligated of 0.676.

The sequence ATCACTTGTCTAAGACACTTTGGTGGGTTGA [3d180] came in with a fraction ligated of 0.0503.

As for ATCACTTGTCTAAGACATTTGGATGGGTTGA [3d177], the fraction ligated turned out to be 0.756.

In the case of ATCACTTGTCTAAGACCTTTGGATGGGTTGA [3d176], the fraction ligated was 0.717.

In turn, ATCACTTGTCTAAGCACTTTGGATGGGTTGA [3d174] returned a fraction ligated of 0.733.

The sequence ATCACTTGTCTAGACACTTTGGATGGGTTGA [3d172] came in with a fraction ligated of 0.734.

For the sequence ATCACTTGTGAAGACACTTTGGATGGGTTGA [3d157], the fraction ligated amounted to 0.815.

With ATCACTTGTGTAAACACTTTGGATGGGTTGA [3d159], the fraction ligated turned out to be 0.837.

In the case of ATCACTTGTGTAAGAACTTTGGATGGGTTGA [3d161], the fraction ligated worked out at 0.88.

As for ATCACTTGTGTAAGACACTTGGATGGGTTGA [3d164], the fraction ligated is 0.719.

ATCACTTGTGTAAGACACTTTGATGGGTTGA [3d165] registered a fraction ligated of 0.453.

For the sequence ATCACTTGTGTAAGACACTTTGGAGGGTTGA [3d167], the fraction ligated worked out at 0.116.

Take ATCACTTGTGTAAGACACTTTGGATGGGTTA [3d169]: the fraction ligated is 0.598.

The sequence ATCACTTGTGTAAGACACTTTGGATGGGTTG [3d170] displayed a fraction ligated of 0.838.

Sequence ATCACTTGTGTAAGACACTTTGGATGGGTTGA [2d9] returned a fraction ligated of 0.853.

The sequence ATCACTTGTGTAAGACACTTTGGATGGTTGA [3d168] showed a fraction ligated of 0.45.

Sequence ATCACTTGTGTAAGACACTTTGGTGGGTTGA [3d166] had a fraction ligated of 0.0152.

As for ATCACTTGTGTAAGACATTTGGATGGGTTGA [3d163], the fraction ligated turned out to be 0.798.

For ATCACTTGTGTAAGACCTTTGGATGGGTTGA [3d162], the fraction ligated is 0.811.

In turn, ATCACTTGTGTAAGCACTTTGGATGGGTTGA [3d160] returned a fraction ligated of 0.854.

As to ATCACTTGTGTAGACACTTTGGATGGGTTGA [3d158], the fraction ligated came out at 0.864.

Sequence ATCACTTGTTAAGACACTTTGGATGGGTTGA [3d156] registered a fraction ligated of 0.787.

ATCACTTTCGAAGACACTTTGGATGGGTTGA [3d126] had a fraction ligated of 0.698.

In turn, ATCACTTTCGTAAACACTTTGGATGGGTTGA [3d128] registered a fraction ligated of 0.779.

ATCACTTTCGTAAGAACTTTGGATGGGTTGA [3d130] gave a fraction ligated of 0.849.

ATCACTTTCGTAAGACACTTGGATGGGTTGA [3d133] showed a fraction ligated of 0.748.

In turn, ATCACTTTCGTAAGACACTTTGATGGGTTGA [3d134] showed a fraction ligated of 0.401.

For ATCACTTTCGTAAGACACTTTGGAGGGTTGA [3d136], the fraction ligated came out at 0.0337.

In turn, ATCACTTTCGTAAGACACTTTGGATGGGTTA [3d138] displayed a fraction ligated of 0.137.

On to ATCACTTTCGTAAGACACTTTGGATGGGTTG [3d139], for which the fraction ligated worked out at 0.777.

In turn, ATCACTTTCGTAAGACACTTTGGATGGGTTGA [2d7] came in with a fraction ligated of 0.772.

ATCACTTTCGTAAGACACTTTGGATGGTTGA [3d137] displayed a fraction ligated of 0.191.

For the sequence ATCACTTTCGTAAGACACTTTGGTGGGTTGA [3d135], the fraction ligated came to 0.00882.

Consider ATCACTTTCGTAAGACATTTGGATGGGTTGA [3d132], for which the fraction ligated is 0.781.

On to ATCACTTTCGTAAGACCTTTGGATGGGTTGA [3d131], for which the fraction ligated was found to be 0.752.

ATCACTTTCGTAAGCACTTTGGATGGGTTGA [3d129] yielded a fraction ligated of 0.766.

The sequence ATCACTTTCGTAGACACTTTGGATGGGTTGA [3d127] displayed a fraction ligated of 0.781.

ATCACTTTCTAAGACACTTTGGATGGGTTGA [3d125]: the fraction ligated was 0.753.

ATCACTTTGTAAGACACTTTGGATGGGTTGA [3d124] yielded a fraction ligated of 0.787.

With ATCATGTCGTAAGACACTTTGGATGGGTTGA [3d86], the fraction ligated was determined as 0.722.

For the sequence ATCATTGCGTAAGACACTTTGGATGGGTTGA [3d88], the fraction ligated stood at 0.755.

For the sequence ATCATTGTCGAAGACACTTTGGATGGGTTGA [3d91], the fraction ligated is 0.728.

ATCATTGTCGTAAACACTTTGGATGGGTTGA [3d93]: the fraction ligated is 0.77.

In the case of ATCATTGTCGTAAGAACTTTGGATGGGTTGA [3d95], the fraction ligated stood at 0.802.

Consider ATCATTGTCGTAAGACACTTGGATGGGTTGA [3d98], for which the fraction ligated amounted to 0.726.

Sequence ATCATTGTCGTAAGACACTTTGATGGGTTGA [3d99] showed a fraction ligated of 0.664.

ATCATTGTCGTAAGACACTTTGGAGGGTTGA [3d101] showed a fraction ligated of 0.12.

For ATCATTGTCGTAAGACACTTTGGATGGGTTA [3d103], the fraction ligated stood at 0.093.

In turn, ATCATTGTCGTAAGACACTTTGGATGGGTTG [3d104] gave a fraction ligated of 0.703.

ATCATTGTCGTAAGACACTTTGGATGGGTTGA [2d5] displayed a fraction ligated of 0.759.

Sequence ATCATTGTCGTAAGACACTTTGGATGGTTGA [3d102] returned a fraction ligated of 0.482.

ATCATTGTCGTAAGACACTTTGGTGGGTTGA [3d100]: the fraction ligated was determined as 0.109.

With ATCATTGTCGTAAGACATTTGGATGGGTTGA [3d97], the fraction ligated amounted to 0.729.

The sequence ATCATTGTCGTAAGACCTTTGGATGGGTTGA [3d96] came in with a fraction ligated of 0.717.

The sequence ATCATTGTCGTAAGCACTTTGGATGGGTTGA [3d94] gave a fraction ligated of 0.727.

ATCATTGTCGTAGACACTTTGGATGGGTTGA [3d92]: the fraction ligated came out at 0.761.

ATCATTGTCTAAGACACTTTGGATGGGTTGA [3d90] registered a fraction ligated of 0.663.

In turn, ATCATTGTGTAAGACACTTTGGATGGGTTGA [3d89] showed a fraction ligated of 0.79.

ATCATTTCGTAAGACACTTTGGATGGGTTGA [3d87] displayed a fraction ligated of 0.654.

Take ATCCTGTCGTAAGACACTTTGGATGGGTTGA [3d67]: the fraction ligated is 0.683.

The sequence ATCCTTGCGTAAGACACTTTGGATGGGTTGA [3d69] returned a fraction ligated of 0.768.

ATCCTTGTCGAAGACACTTTGGATGGGTTGA [3d72] registered a fraction ligated of 0.773.

ATCCTTGTCGTAAACACTTTGGATGGGTTGA [3d74] had a fraction ligated of 0.789.

With ATCCTTGTCGTAAGAACTTTGGATGGGTTGA [3d76], the fraction ligated worked out at 0.719.

ATCCTTGTCGTAAGACACTTGGATGGGTTGA [3d79] yielded a fraction ligated of 0.733.

The sequence ATCCTTGTCGTAAGACACTTTGATGGGTTGA [3d80] had a fraction ligated of 0.71.

Turning to ATCCTTGTCGTAAGACACTTTGGAGGGTTGA [3d82], the fraction ligated came out at 0.1.

On to ATCCTTGTCGTAAGACACTTTGGATGGGTTA [3d84], for which the fraction ligated amounted to 0.218.

On to ATCCTTGTCGTAAGACACTTTGGATGGGTTG [3d85], for which the fraction ligated was found to be 0.716.

In turn, ATCCTTGTCGTAAGACACTTTGGATGGGTTGA [2d4] showed a fraction ligated of 0.744.

ATCCTTGTCGTAAGACACTTTGGATGGTTGA [3d83]: the fraction ligated was 0.138.

On to ATCCTTGTCGTAAGACACTTTGGTGGGTTGA [3d81], for which the fraction ligated amounted to 0.169.

The sequence ATCCTTGTCGTAAGACATTTGGATGGGTTGA [3d78] registered a fraction ligated of 0.725.

Consider ATCCTTGTCGTAAGACCTTTGGATGGGTTGA [3d77], for which the fraction ligated is 0.703.

ATCCTTGTCGTAAGCACTTTGGATGGGTTGA [3d75] showed a fraction ligated of 0.715.

Consider ATCCTTGTCGTAGACACTTTGGATGGGTTGA [3d73], for which the fraction ligated was 0.758.

In the case of ATCCTTGTCTAAGACACTTTGGATGGGTTGA [3d71], the fraction ligated worked out at 0.716.

As for ATCCTTGTGTAAGACACTTTGGATGGGTTGA [3d70], the fraction ligated came to 0.734.

Sequence ATCCTTTCGTAAGACACTTTGGATGGGTTGA [3d68] returned a fraction ligated of 0.791.

Take ATCTTGTCGTAAGACACTTTGGATGGGTTGA [3d46]: the fraction ligated was determined as 0.774.

The sequence CACTTGTCGTAAGACACTTTGGATGGGTTGA [3d1] had a fraction ligated of 0.637.

In the case of “GGTATCACTTGTCGTAAGACACTTTGGATGTTGA [s36]”, the fraction ligated amounted to 0.000954.

Take “GGTTATCACTTGTCGTAAGACACTTTGGATGTGA [s37]”: the fraction ligated is 0.

Sequence “GTATCACTTGTCGTAAGACACTTTGGATGGTTGA [s35]” registered a fraction ligated of 0.242.

Turning to TAACTGTCGTAAGACACTTTGGATGGGTTGA [3d509], the fraction ligated was determined as 0.175.

Sequence TAACTTGCGTAAGACACTTTGGATGGGTTGA [3d511] showed a fraction ligated of 0.085.

The sequence TAACTTGTCGAAGACACTTTGGATGGGTTGA [3d514] displayed a fraction ligated of 0.112.

TAACTTGTCGTAAACACTTTGGATGGGTTGA [3d516]: the fraction ligated was 0.0735.
